Measurements published in US20120316071A1 (published 2012).
Where two headings read alike, the source gives them in different places.

What was measured:
[1] = biological target: T1, Recombinant Human DLL4 (delta-like protein 4) (human, UniProt Q9NR61 27-529); test: 96-well plate ECL (MSD) binding assay on coated DLL4, 10 nM Fab
T1 construct: Bought recombinant human DLL4 (R&D Systems Cat#1506-D4/CF), coated on the plate; also called rHuman DLL4; Delta-like 4

[2] = biological target: T1, Recombinant Human DLL4 (delta-like …); test: ELISA on coated DLL4, 100 nM Fab
[3] = biological target: T2, Recombinant Human DLL4 (delta-like protein 4) (human, UniProt Q9NR61 27-524); test: ECL (MSD) multispot binding assay, DLL4 immobilised, 10 nM Fab, DLL4 signal over blank
T2 construct: Bought recombinant protein (R&D Systems Cat#1506-D4/CF); also called rHuman DLL4; Delta-like 4

[4] = biological target: T2, Recombinant Human DLL4 (delta-like …); test: ELISA on plate-coated DLL4, 100 nM Fab, signal minus noise
[5] = biological target: T1, Recombinant Human DLL4 (delta-like …); test: 96-well plate ECL (MSD) binding assay on coated DLL4, 10 nM Fab; remark: listed apart in the source
[6] = biological target: T1, Recombinant Human DLL4 (delta-like …); test: ELISA on coated DLL4, 100 nM Fab; remark: listed apart in the source

Row | Binder | Signal/Noise [10 nM Fab] [3] | ELISA (Signal-Noise) [4] | also measured
1 | Fab VH1-46_IGHD6-6*01_IGHJ1*01 S102A/S103P/S104F/H111F/I51R/N52L/S54T/G56H (APFF RLTH) & L6_IGKJ1*01 (Fab, V domains shown, Fab made in E. coli; CH1 with tags and kappa CL are not included) VH: QVQLVQSGAEVKKPGASVKVSCKASGYTFTSYYMHWVRQAPGQGLEWMGIRLPTGHSTSYAQKFQGRVTMTRDTSTSTVYMELSSLRSEDTAVYYCAREEYAPFSAEYFQFWGQGTLVTVSS VL: not shown |  |  | ECL signal [1]: 92400; ELISA signal [2]: 0.512
2 | Fab VH1-46_IGHD6-6*01_IGHJ1*01 S102A/S103P/S104F/H111F/I51W/N52L/S54T/G56H (APFF WLTH) & L6_IGKJ1*01 (Fab, V domains shown, Fab made in E. coli; CH1 with tags and kappa CL are not included) VH: QVQLVQSGAEVKKPGASVKVSCKASGYTFTSYYMHWVRQAPGQGLEWMGIWLPTGHSTSYAQKFQGRVTMTRDTSTSTVYMELSSLRSEDTAVYYCAREEYAPFSAEYFQFWGQGTLVTVSS VL: not shown |  |  | ECL signal [1]: 126000; ELISA signal [2]: 0.088
3 | Fab VH1-46_IGHD6-6*01_IGHJ1*01 S102A/S103P/S104F/H111F N52A & L6_IGKJ1*01 (Fab, V domains shown, Fab made in E. coli: CH1 with His6/Flag tags from Plasmid A, kappa constant region from Plasmid C; also called APFF N52A) VH: QVQLVQSGAEVKKPGASVKVSCKASGYTFTSYYMHWVRQAPGQGLEWMGIIAPSGGSTSYAQKFQGRVTMTRDTSTSTVYMELSSLRSEDTAVYYCAREEYAPFSAEYFQFWGQGTLVTVSS VL: not shown | 721 | 0.6 | 
4 | Fab VH1-46_IGHD6-6*01_IGHJ1*01 S102A/S103P/S104F/H111F S54N & L6_IGKJ1*01 (Fab, V domains shown, Fab made in E. coli; CH1 with tags and kappa CL are not included; also called APFF S54N) VH: QVQLVQSGAEVKKPGASVKVSCKASGYTFTSYYMHWVRQAPGQGLEWMGIINPNGGSTSYAQKFQGRVTMTRDTSTSTVYMELSSLRSEDTAVYYCAREEYAPFSAEYFQFWGQGTLVTVSS VL: not shown |  |  | ECL signal [5]: 31700; ELISA signal [6]: 0.02
5 | Fab VH1-46_IGHD6-6*01_IGHJ1*01 S102A/S103P/S104F/H111F I51A & L6_IGKJ1*01 (Fab, V domains shown, Fab made in E. coli: CH1 with His6/Flag tags from Plasmid A, kappa constant region from Plasmid C; also called APFF I51A) VH: QVQLVQSGAEVKKPGASVKVSCKASGYTFTSYYMHWVRQAPGQGLEWMGIANPSGGSTSYAQKFQGRVTMTRDTSTSTVYMELSSLRSEDTAVYYCAREEYAPFSAEYFQFWGQGTLVTVSS VL: not shown | 637 | 0.49 | 
6 | Fab VH1-46_IGHD6-6*01_IGHJ1*01 S102A/S103P/S104F/H111F S54L & L6_IGKJ1*01 (Fab, V domains shown, Fab made in E. coli; CH1 with tags and kappa CL are not included; also called APFF S54L) VH: QVQLVQSGAEVKKPGASVKVSCKASGYTFTSYYMHWVRQAPGQGLEWMGIINPLGGSTSYAQKFQGRVTMTRDTSTSTVYMELSSLRSEDTAVYYCAREEYAPFSAEYFQFWGQGTLVTVSS VL: not shown |  |  | ECL signal [5]: 28200; ELISA signal [6]: 0.02
7 | Fab VH1-46_IGHD6-6*01_IGHJ1*01 S102A/S103P/S104F/H111F S57A & L6_IGKJ1*01 (Fab, V domains shown, Fab made in E. coli: CH1 with His6/Flag tags from Plasmid A, kappa constant region from Plasmid C; also called APFF S57A) VH: QVQLVQSGAEVKKPGASVKVSCKASGYTFTSYYMHWVRQAPGQGLEWMGIINPSGGATSYAQKFQGRVTMTRDTSTSTVYMELSSLRSEDTAVYYCAREEYAPFSAEYFQFWGQGTLVTVSS VL: not shown | 293 | 0.39 | 
8 | Fab VH1-46_IGHD6-6*01_IGHJ1*01 S102A/S103P/S104F/H111F S54A & L6_IGKJ1*01 (Fab, V domains shown, Fab made in E. coli: CH1 with His6/Flag tags from Plasmid A, kappa constant region from Plasmid C; also called APFF S54A) VH: QVQLVQSGAEVKKPGASVKVSCKASGYTFTSYYMHWVRQAPGQGLEWMGIINPAGGSTSYAQKFQGRVTMTRDTSTSTVYMELSSLRSEDTAVYYCAREEYAPFSAEYFQFWGQGTLVTVSS VL: not shown | 122 | 0.255 | 
9 | Fab VH1-46_IGHD6-6*01_IGHJ1*01 S102A/S103P/S104F/H111F/I51V/N52L/S54T/G56H (APFF VLTH) & L6_IGKJ1*01 (Fab, V domains shown, Fab made in E. coli; CH1 with tags and kappa CL are not included) VH: QVQLVQSGAEVKKPGASVKVSCKASGYTFTSYYMHWVRQAPGQGLEWMGIVLPTGHSTSYAQKFQGRVTMTRDTSTSTVYMELSSLRSEDTAVYYCAREEYAPFSAEYFQFWGQGTLVTVSS VL: not shown |  |  | ECL signal [1]: 192000; ELISA signal [2]: 1.1
10 | Fab VH1-46_IGHD6-6*01_IGHJ1*01 S102A/S103P/S104F/H111F G56A & L6_IGKJ1*01 (Fab, V domains shown, Fab made in E. coli: CH1 with His6/Flag tags from Plasmid A, kappa constant region from Plasmid C; also called APFF G56A) VH: QVQLVQSGAEVKKPGASVKVSCKASGYTFTSYYMHWVRQAPGQGLEWMGIINPSGASTSYAQKFQGRVTMTRDTSTSTVYMELSSLRSEDTAVYYCAREEYAPFSAEYFQFWGQGTLVTVSS VL: not shown | 442 | 1.6 | 
11 | Fab VH1-46_IGHD6-6*01_IGHJ1*01 S102A/S103P/S104F/H111F P53A & L6_IGKJ1*01 (Fab, V domains shown, Fab made in E. coli: CH1 with His6/Flag tags from Plasmid A, kappa constant region from Plasmid C; also called APFF P53A) VH: QVQLVQSGAEVKKPGASVKVSCKASGYTFTSYYMHWVRQAPGQGLEWMGIINASGGSTSYAQKFQGRVTMTRDTSTSTVYMELSSLRSEDTAVYYCAREEYAPFSAEYFQFWGQGTLVTVSS VL: not shown | 462 | 0.41 | 
